Measured values reported in US20220356229A1 (published 2022).

target: SARS-CoV-2 Spike (S) protein, wild type (SARS-CoV-2, UniProt P0DTC2 14-1208); experiment: HT-SPR Carterra LSA; mAb coupled to chip, Spike in solution; 1:1 Langmuir fit

Binder	Kd [nM]	koff [s⁻¹]	kon [M⁻¹ s⁻¹]
anti-SARS-CoV-2 antibody 1075 (antibody, V domains shown) VH: QVQLVQSGAEVKKPGASVKVSCKVSGYTLIELSMHWVRQAPGKGLEWMGGFDPEDGETIYAQKFQGRVTMTEDTSTDTAYMELSSLRSEDTAVYYCATEWAYYGSGSYLGYWGQGTLVTVSS VL: EIVMTQSPATLSVSPGERATLSCRASQSVSSNLAWFQQKPGQAPRLLIYGASTRVTVIPARFSGSGSGTEFTLTISSLQSEDFAVYYCQQYNNWPRTFGQGTKVEIKR	0.717	3.04e-05	227000
anti-SARS-CoV-2 antibody 1149 (antibody, V domains shown) VH: QVQLVQSGAEVKKPGASVKVSCKASGYTFASYDINWVRQATGQGPEWMGWMIPNIGNTGYAQKFQGRVTMTRNTSISTAYMELSSLTSEDTAVYYCARVSRLFNDFGLRHEAPVDFWGQGTRVTVSS VL: QSVLTQPPSVSGAPGQRVTISCTGSSSNIGAGYDVHWYQQLPGTAPKLLIYGYSSRPSGVPDRFSGSKSGTSASLAITGLQAEDEADYYCQSYDSSLSVLFGGGTKLTVLG	≤ 0.0151	≤ 1e-05	664000
anti-SARS-CoV-2 antibody 1015 (antibody, V domains shown) VH: EVQLVESGGGLVQPGGSLRLSCAASGFTFSSYWMHWVRQAPGKGLVWVSHINSDGSSTSYADSVKGRFTISRDNAKNTLYLQMNSLRAEDTAVYYCARGLRYFDLDVWGQGTTVTVSS VL: QSVLTQPPSVSEAPRQRVTISCSGSSSNIGNNAVNWYQQLPGKAPKLLIFYDDLLPSGVSDRFSGSKSGTSASLAISGLQSEDEADYYCAAWDDSLNGGVFGGGTKLTVLG	0.0439	2.19e-05	500000
anti-SARS-CoV-2 antibody 1139 (antibody, V domains shown) VH: QVQLVQSGAEVKKPGASVKVSCKASGYTFSSYEINWVRQATGQGLEWMGRMTLNSGNTGYAQNFQGRVTMTRDTSISTAYMELSGLRSEDTAVYYCARMRSGWPTHGRPDDYWGQGTLVTVSS VL: not shown	0.0433	5.31e-05	1.22e+06
anti-SARS-CoV-2 antibody 970 (antibody, V domains shown) VH: EVQLVESGGGLVQPGGSLRLSCAASGFTFSSYWMSWVRQAPGKGLEWVANINKDGSEKYYVDSVKGRFTISRDNAKNSLYLQMNSLRAEDTAVYFCARDYRYFDWLLSQIDLEIDYFDYWGQGTLVTVSS VL: not shown	0.482	0.00034	706000
anti-SARS-CoV-2 antibody 851 (antibody, V domains shown) VH: QITLKESGPTLVKPTQTLTLTCTFSGFSLSTNGVGMGWIRQPPGKALEWLALIYWDDDQFYSPSLKSRLTITRDTSKNQVVLTMTNMDPVDTATYYCAQAFYESFGFYSWGQGTLVTVSS VL: NFMLTQPHSVSESPGKTVIISCTRSIGSIASNYVQWYQQRPGSAPTIVVFEDNERPSGVPDRFSGSIDRSSNSASLTISGLKTEDEADYYCQSYDGSSELVFGGGTKLTVLG	≤ 1.44	≤ 1e-05	6960
anti-SARS-CoV-2 antibody 1037 (antibody, V domains shown) VH: QITLKESGPTLVKPTQTLTLTCTFSGFSLSTSGVGVGWIRQPPGKALEWLALIYWDDDKRYSPSLKSRLTITKDTSKNQVVLTMTNMDPVDTATYYCAHHTITRINDYWGQGTLVTVSS VL: QSALTQPASVSGSPGQSITISCTATSSDVGAYNYVSWYQQHPGKAPKLMIYDVSKRPSGVSNRFSGSKSGNTASLTISGLQAEDEADYYCSSYTSSSTVFGGGTKLTVLG	0.0319	1.36e-05	443000
anti-SARS-CoV-2 antibody 923 (antibody, V domains shown) VH: EVQLVESGGGVVRPGGSLRLSCAASGFIFDDYDMTWVRQAPGKGLEWVSGISWNGGNTGYADSVKGRFTISRDNAKNSLYLQMNSLRAEDTALYHCAVIMSPIPRYSGYDWAGGAFDIWGQGTMVTVSS VL: SSELTQDPAVSVALGQTVRITCQGDSLRSYYASWYQQKPGQVPILVIYDKNNRPSGIPDRFSGSSSGNTASLTITGAQAEDEADYYCNSRDSSGNAVVFGGGTKLTVLG	≤ 0.0161	≤ 1e-05	653000

target: SARS-CoV-2 full length Spike protein, wild type (SARS-CoV-2, UniProt P0DTC2 14-1208); experiment: not given

Binder	bead binding signal (fold over isotype)
antibody 320 (antibody, V domains shown) VH: QVQLVQSGAEVKKPGASVKVSCKASGYTFTSYGISWVRQAPGQGLEWMGWISAYNGNTNYAQKLQGRVTMTTDTSTRTAYMELRSLRSDDTAVYYCARVGCYYDSSGYSCAENFQHWGQGTLVTVSS VL: QSVLTQPPSVSGAPGQRVTISCTGSSSNIGAGYDVHWYQQLPGTAPKLLIYGNSNRPSGVPDRFSGSKSGTSASLAITGLQAEDEADYYCQSYDSSLSALFGGGTKLTVL	1200
antibody 324 (antibody, V domains shown) VH: QVQLQESGPGLVKPSGTLSLTCAVSGGSISSSNWWSWVRQPPGKGLEWIGEIYHSGSTNYNPSLKSRVTISVDNSKNQFSLKLSSVTAADTAVYYCARESVAAAGISYYYYGMDVWGQGTTVTVSS VL: EIVLTQSPGTLSLSPGERATLSCRASQSVSGRYLAWYQQKPGQAPRLLIYGASSRATGIPDRFSGSGSGTDFTLTISRLEPEDFAVYYCQHYGSSPGTFGQGTRLEIK	1.13
antibody 317 (antibody, V domains shown) VH: QVQLVQSGAEVKKPGASVKVSCKVSGYTLTELSMHWVRQAPGKGLEWMGGFDPEDGETIYAQKFQGRVTMTEDTSTDTAYMELSSLRSEDTAVYYCASSPAAAGTSQYYYYYGMDVWGQGTTVTVSS VL: not shown	890
antibody 316 (antibody, V domains shown) VH: QVHLVESGGGVVQPGRSLRLSCAASGFTLTAYAMHWVRQAPGKRLEWVALISYDGSVKKYADSVKGRITVSGDTSTNTLHLQMNSLRADDTAVYYCVRGGVSGPNSFDLWGQGTMVTVSS VL: DVVMTQSPLSLPVTLGQPASMSCRSSQSLEYSDGNTYVNWFHQRPGQSPRRLIYKVSYRDSGVPDRFSGSGSGTDFTLQISRVEAEDVGIYYCMQGTHWPVTFGQGTKVEIK	442
antibody 323 (antibody, V domains shown) VH: QVQLVQSGAEVKKPGASVKVSCKVSGYTLTELSMHWVRQAPGKGLEWMGGFDPEDGETIYAQKFQGRVTMTEDTSTDTAYMELSSLRSEDTAVYYCATSTIFAPGGWFDPWGQGTLVTVSS VL: QSALTQPASVSGSPGQSITISCTGTSSDVGSYNLVSWYQQHPGKAPKLMIYEVSKRPSGVSNRFSGSKSGNTASLTISGLQAEDEADYYCCSYAGSTHYVFGTGTKVTVL	994

target: SARS-CoV Spike protein (SARS-CoV, UniProt P59594 14-1190); experiment: not given

Binder	bead binding signal (median fluorescence, fold over isotype control) [fold over isotype control]
antibody 367 (antibody, V domains shown) VH: QVQLVQSGAEVKKPGASVKVSCKASGYTFTGYYIHWVRQAPGQGLEWMGWINPNSGGTIYAQKFQGRVTMTRDTSISTAYMELSRLTSDDTAVYSCAREPYYDILTGYYAPRRYFDYWGQGTLVTVSS VL: QSALTQPASVSGSPGQSITISCTGTSSDVGSYNYVSWYLQHPGKAPKLMIYDVSNRPSGVSNRFSGSKSGNTASLTISGLQAEDEADFYCSSYTSRSTYVFGTGTKVTVL	1.08
antibody 379 (antibody, V domains shown) VH: QVQLQESGPGLVKPSQTLSLTCTVSGGSISSGGYYWSWIRQHPGKGLEWIGYIYYSGSTYYNPSLKSRVTISVDTSKNQFSLKLSSVTAADTAVYYCARGPLDFWSGYFRLRYFDSWGQGTLVTVSS VL: QSALTQPASVSGSPGQSITISCTGTSSDVGGYNYVSWYQQHPGKAPKLMIYDVTNRPSGVSNRFSGSKSGNTASLTISGLQAEDEADYYCSSYTSSSTCVFGTGTKVTVL	5.9
antibody 351 (antibody, V domains shown) VH: HVQLVESGGGVVQPGRSLRLSCAASGFISRNYGMEWVRQAPGQGLEWVAGIWYDGSKKYYADSVKGRFTISRDTSKNTLFLQMDSLRAEDTAVFYCATATKTFCGGDCPPGGMDVWGQGTTVTVST VL: SYVLTQPPSVSVAPGKTAWITCVGNNIESESVHWYQQRPGQAPVLVIYYDSDRPSGIPERFFGSNSGNTATLTISRVEAGDEADYYCQVWDSNSDLMVFGGGTKLTVL	1.08
antibody 363 (antibody, V domains shown) VH: EVQLLESGGGLVQPGGSLRLSCAASGFTFSTYAMSWVRQAPGKGLEWVSAISGSGGSTYYADSVKGRFTISRDNSKNTLYLQMNSLRAEDTAVYYCASGYSPDYWGQGTLVTVSS VL: not shown	1.09
antibody 372 (antibody, V domains shown) VH: QVQLVESGGGVVQPGRSLRLSCAASGFTFSSYAMHWVRQAPGKGLEWVAVISYDGSNKYYADSVKGRFTISRDNSKNTLYLQMNSLRAEDTAVYYCARDLGTSALLWFGELFLNYGMDVWGQGTTVTVSS VL: QSALTQPRSVSGSPGQSVTISCTGTSSDVGGYNYVSWYQQHPGKAPKLMIYDVSKRPSGVPDRFSGSKSGNTASLTISGLQAEDEADYYCCSYAGSPILVFGGGTKLTVL	1.08
antibody 368 (antibody, V domains shown) V domain 1: QITLKESGPTLVKPTETLTLTCAFSGFSLTKTGEAAGWIRQAPGRALEWVTVIFWDDDKRYSPSLQNRLTVTKDTSKNVVVLTMTNVDPVDTATYFCWAMGGPGKEFFGQGTRVAVSS V domain 2: QSVLTQPPSVSGAPGQRVTVSCTGTSSSIGPYSDVHWYQHIPGKAPRLLIFGTSNRPSGVPARFSGSKSGSSASLVIAGLQAEDEADYYCQSYDSSLGEIYVFGTGTTVTVL	1.09
antibody 380 (antibody, V domains shown) VH: QVQLVESGGGVVQPGRSLRLSCAASGFTLKNYGMHWVRQAPGKGLEWVIVLSFDGSDEYKADSVRGRFTVSRDNSKNTLFLQMNSLRPDDTAVYYCAREQPTMIEGGRGPFDIWGQGTMVTVSS VL: EVVMTQSPATLSVSPGDRATLSCRASQGVNSNLAWYQQKPGQAPRLLIYAASTRATGIPARFSASGSGTHFTLTISSLQSEDFAVYYCLQYNNWPPWTFGQGTKLEIK	1.21
antibody 366 (antibody, V domains shown) VH: QVQLVESGGGVVQPGRSLRLSCAASGFTFSSYAMHWVRQAPGKGLEWVAVISYDGSNKYYADSVKGRFTISRDNSKNTLYLQMNSLRAEDTAVYYCARGLVGYNWFDPWGQGTLVTVSS VL: DIQMTQSPSSVSASVGDRVTITCRASQGISSWLAWYQQKPGKAPKLLIYAASSLQSGVPSRFSGSGSGTDFTLTISSLQPEDFATYYCQQANSFTFGPGTKVDIK	1.23
